The results in this text go back to patent publication US20240026407A1, “MODIFICATION OF SAPONINS” (GLAXOSMITHKLINE BIOLOGICALS SA, priority 2020, published 2024).

Common to all, as to type: biochemical, Quillaja saponaria
A short description of assay [1]: Experiment 4-3: screening of glucosidases for deglycosylation with QS-18 in crude bark extract (1 in 2000 dilution) at pH 7 and 30 deg C. The following applies: CBE 1 in 2000 dilution, pH 7, 30 degC, 1 h; % conversion of QS-18 by LCMS/MS.
Assay [2] can be described thus: Experiment 4-1: screening of glucosidases for deglycosylation with purified QS-18 (0.04 mg/ml) at pH 7.5 and room temperature. The following applies: pH 7.5, room temperature, 20 h, clarified E. coli lysate, QS-18 2150 to QS-21 1988 by LCMS/MS. In a few lines: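 Deglycosylation measured by LC-MS/MS as % conversion after 20 h room-temperature incubation of QS-18 phenyl fraction (0.04 mg/ml final) with polymyxin B/lysozyme lysates, pH 7.5 phosphate, of E. coli BL21(DE3) expressing each enzyme; MeCN quench. Positives exceeded negative control by >3 S.D.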

The nature of assay [3]: Experiment 4-2: screening of glucosidases for deglycosylation with purified QS-18 (1 mg/ml) at pH 6 and 30 deg C. The following applies: pH 6, 30 degC, 18 hrs, clarified lysate, LCMS/MS. In a few lines:
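Enzyme activity derived from LC-MS/MS analysis after MeCN quench. Substrate QS-18 (1 mg/ml final) was exposed overnight (18 h, 30 °C, pH 6 phosphate buffer) to clarified lysates containing candidate glucosidases.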

A short description of assay [4]: Experiment 4-4: screening of glucosidases for deglycosylation of QS-18 in crude bark extract (1 in 20 dilution) to QS-21. The following applies: CBE 1 in 20 dilution, pH 6, 25 degC, 18 hours; % conversion of Middle Peak by UV HPLC. In a few lines:
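Clarified glucosidase lysates were incubated with pH 6 crude bark extract (1 in 20) in potassium phosphate buffer pH 6 for 18 h at 25 °C with shaking, then quenched with MeCN. UV HPLC with MS/MS-supported peak identity; activity is % conversion of the extract's Middle Peak (QS-18 family) toward the QS-21 peak.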

A short description of assay [5]: Experiment 5-3: screening of additional glucosidases for deglycosylation with QS-18 in treated bark extract (80%) at pH 6 and 35 deg C. The following applies: TBE 80% (QS-21 approx. 4 g/L), pH 6, 35 deg C; UV HPLC. The method, then:
Experiment 5-1 was repeated, replacing CBE with Treated Bark Extract (TBE) at pH 6. TBE was prepared from CBE by PVPP treatment and concentration, to provide TBE with a QS-21 concentration of approximately 4 g/L. TBE was adjusted to pH 6 by dropwise addition of 2M NaOH with stirring.

A short description of assay [6]: Experiment 5-2: screening of additional glucosidases for deglycosylation with QS-18 in crude bark extract (80%) at pH 6 and 35 deg C. The following applies: CBE 80%, pH 6, 35 deg C, 18 hours; UV HPLC. In a few lines: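 Deglycosylation of QS-18 was monitored by UV HPLC after MeCN/AcOH quench with hexanophenone. The reaction ran 18 hours at 35 deg C, shaking, combining clarified pH 6 lysate with crude bark extract neutralised to pH 6 by NaOH.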

A short description of assay [7]: Experiment 5-1: screening of additional glucosidases for deglycosylation with purified QS-18 (0.04 mg/ml) at pH 7.5 and 30 deg C. The following applies: pH 7.5, 30 degrees C, 18 hours, LCMS/MS. On the procedure:
The 94 additional genes, together with positive control (DNA encoding SEQ ID No. 262) and negative control, were transformed, expressed, lysed and reacted in the same manner as described above for Experiment 4-1, except the reaction was incubated at 30 degrees C. for 18 hours.
Samples were analysed by LCMS/MS according to the procedure in Experiment 4-1.

B1: 250 (protein, listed as Modestobacter marinus)
chain: MTATTPSDPTALPLEQKVRLLSGQDFWSTPAVAEAGLSSVVLTDGPHGVRRQQGEFDQIGLLESVPATCFPPAVAVGSSWDPEVAERIGAAVGVEARAIGVPVVLGPGVNIKRSPLCGRNFEYYSEDPLLAGVLGAAHVRGQQGEGVGASVKHFAANNQETQRMQVSADVDERTLREVYLPAFERVVTESRPATVMCAYNKVNGVYASQHRWLLTEVLREEWGFRGAVVSDWGAVDDRVAALEAGLDLQMPGDSGAGNALVVEAVRAGVLDEAVVDRSVRRVAALAGLVAEPTAGFDVEAHHALARELAAGCAVLLKNDGGTLPLTAGTRITVVGEFARTPRFQGGGSSHVNATRVDDALTALQGAVEVTFAPGFTLDGSGDAAALREEAVAAARGAEVTVVFAGLAEADESEGFDRTTLDLPAGQVDLIRAVAAVSLRTVVVLSSGSVVSLEGWHDDVDAVLAGFLLGQAGGGALADLLTGAVDPSGRLAETIPLRLQDTPSYLTFPGEQGHARYGEGVMVGYRHYETAEQPVRYPFGHGLSYTSFATTDLQVRTRGADGATATVTVTNTGERAGRHVVQVYVATAAGPVRRPARELRAFTKVSLAAGESATVAFELDRRAFAYWDVREHDWVVAPGEYSVQIGASAADVLDQRTVTLAGDDLVPELTLQSSVAEWFAHPVAGPQLLAGFVAAMPDGAAEMHEGMLQMIGSMPMRRFAADFGSAVPAAELDRLMAAARAAR
Consider B1, for which the “Expt 4-3 % conv” value in assay [1] was determined as 2.6%. For the same molecule, the “Expt 4-1 % conv” value in assay [2] is 88.5%. The “Expt 4-2 % conv” value in assay [3] worked out at 36.0%. Also, the “Expt 4-4 % conv” value in assay [4] was less than 3%.

B2: 262 (protein, listed as Modestobacter marinus)
chain: MNPASSTRTDTMTDTTARTDSRLTDALAALSLEQKVQLLTGRDFWNTWPIEEIGLRRILVSDGPSGVRGEVWDERDPSLNLPSATALASAWDPDIARRYGAAAAVEARRKGVDVVLGPTINLHRSPLGGRHFEAFSEDPVLTAELAAAYVTGVQDNGVGATPKHYVANDFETDRFTVDVRADERTLRELYLLAFEKAVTEARAWLVMSAYNGINGATATENDLLETPLNSEWGFDGVVVSDWTAVRSLESARSSQDLVMPGPVGPWGDALVEAVRTGAIDESVVDRKVLRILTLAQRVGALEGSPAIDPVWVEDGVALAREAAVEGTVLLENRDELPWDATSLRKVAVIGNNAAAARTQGGGSATVLPEYTVSPLDGVRAALPDAEVSYSLGAVVQDGLVELPLAELTNPVTGGPGLRARFLTADGAELFGEDRRKSVLVYFGGDAPIAAAATYELTARWTPTESQTVRLGFALIGAAQLYVDGELLVESDLQPSGTDLGAAFMNPLTASAEVELVAGKPVDVRLVHDLSAKEGFAAHALFLQLGTEPAEVDEDALIAEAAEAAEAADVVLVVVGTNSIVESEGYDRESLSLPGRQDDLVRAVVAANPRTVVLVNAGAPVLLPWRDDVAALLLGWFGGQEFGNAVADVLLGVAEPGGRLPTTWPAAEADVPVLSCTPVDGVVEYTEGIHIGYRAWLRSGATPAYWFGSGQGYTCVELTGVEAPSRARPGEIVTVSVEVANRGERDGKQVVQVYAEKPDSTVDRPVRWLVGSAPVRVPAGQTAQVEVAVPTRYLAHWAGGWQYEPGVYRLRVGTTAVELPLETTLEVSA
As to B2, the “Experiment 5-3 % conv” value in assay [5] worked out at 8.5%. Further, the “Experiment 5-2 % conv” value in assay [6] was 5.5%. For the same molecule, the “Expt 4-3 % conv” value in assay [1] is 99.7%. The “Expt 4-1 % conv” value in assay [2] was found to be 99.5%. In addition, the “Expt 4-2 % conv” value in assay [3] was determined as 97.9%. The “Expt 4-4 % conv” value in assay [4] is given as 68.6%. For the same molecule, the “Experiment 5-1 % conv” value in assay [7] turned out to be 98.7%.
